A short description of the series: label from the status in PepcDB records.
For the sequence “MVTIKEYSVPQSLEEAYKILISKKNNVILGGCGFIKLSNKNIGTAIDLKDINLNYIKEDEKNILIGADTSLRSLEIDKTIKNYCSGILSSAVSNIVGVQFRQGARIGASVFSKYGFSDLIPALLVVGAKVRLYNKGILELSEFLDSELSRDILVEVILPKKDAIAVFDSIRKCTGDFSVLNSAMLKENDTYKIAIGARPQKARLALEASNILNKEKDIDKASIVASKELTYGSNMRASKEYRKDMASALVKRMYNAIEEGMYND”, the protein production entry is reported as “failed”.
Next, “MRLITHNMLSCNIKGVTSGFPLRIEAGNVIEKEVDFNPDFIRHMFAKIEWKALVEGARSMGYAELPEESPDAAVLKSDEPFLKKLHHALLELHLEEGALVCPETGRKFPVNKGIPNMLLHEDEV”: “failed”; “MDIFLVVLVLLTIIAISNIVNRFIPFIPVPLIQVALGILAASFPQGLHFELNTELFFVLFIAPLLFNDGKRTPRAELWNLRAPILLLALGLVFATVIVGGYTIHWMIPAIPLAAAFGLAAILSPTDVVAVSALSGRVKMPKGILRLLEGEGLMNDASGLVAFKFAIAAAVTGAFSLAQAAVSFVFISLGGLLCGVVISFLIIRFRLFLRRLGMQDVTMHMLIQILTPFVIYLAAEEIGVSGILAVVAGGITHAVEQDRLESTMIKLQIVSSSTWNIILFILNGLVFVILGTQIPDVISVIFNDTAISNMKVIGYILVITFTLMLLRFLWVLFFWNGKWFFNKDQNIYKPGLRSTLLISISGVRGAVTLAGSFSIPYFLEDGTPFPERNLILFLAAGVILCTLVIATVVLPILTEKEEEDEERNKKLLTARRKLIKTALQTIKEDMNETNKTASLAVIAEYNEKMKNLRFQQYTSSNRIKKHERKVRAQGVKAEQEALMKMLERGDIPEETANVLQERFNELEILYANPFKVGLSKTRLKRLMYWIFFGEHKKPEMSILNEAGLIRATRVKTAKAAIEYLEKHKTDEHKEVFLSVITFYKQLIFRLEHSHHELKSSAHFENQKLEVKLKAVQAIRNEIQTLFEEREISRDISHELRQYINDVEAAMLEGGE”: “failed”; “MDPLEDVLTLLKTRSHLSASLVAGGRWAVRFDAPRVVKFNAVRRGTCQLEVDGIDEPIDLAEGDCYLLTRPRSFTLRSDPETAPVDGGAVFARAEDGIARAGQGDDVFLIGGGFSFGTRAQELLLDRLPPIVHVPADTPHAETVQWALTAIDQELTHRPMASTLIAEHLAVIMLVHVLRLHLERAPHAVSGWLAGLADPVVATALTCLHRDPARSWTVADLADTAAVSRSTLAARFKATVGQGPLEYLTRWRIELAARQLREGNATLASIAHSVGYGSESALSVAFKRVLGMPPGDYRKHPTMP”: “failed”.
Take “DIVARLQTQASATVAIPKEHHRFVIGKNGEKLQDLELKTATKIQIPRPDDPSNQIKITGTKEGIEKARHEVLLISAEQDKR”: the protein production entry was “not failed”.
Next, “MKLSFSLPSKSKPKVTATTADGNNAVDDGTSKEFVTEFDPSKTLANSIPKYVIPPIENTWRPHKKMKNLDLPLQSGNAGSGLEFEPEVPLPGTEKPDNISYGLNLRQKVKDDSIGGDAVEERKVSMGEQLMLQSLRRDLMSLADDPTLEDFESVPVDGFGAALMAGYGWKPGKGIGKNAKEDVEIKEYKKWTAKEGLGFDPDRSKVVDVKAKVKESVKLDKKGVGINGGDVFFVGKEVRIIAGRDVGLKGKIVEKPGSDFFVIKISGSEEEVKVGVNEVADLGSKEEEKCLKKLKDLQLNDREKDKKTSGRGRGAERGSRSEVRASEKQDRGQTRERKVKPSWLRSHIKVRIVSKDWKGGRLYLKKGKVVDVVGPTTCDITMDETQELVQGVDQELLETALPRRGGPVLVLSGKHKGVYGNLVEKDLDKETGVVRDLDNHKMLDVRLDQVAEYMGDMDDIEY”: “failed”.
For “MDLVAWETLSFPVVSAAFGASAFLIAVVGTRMTRAADRLADETGLGEAIFGAVLLGSTTSIAGITTSVTAAVDGLPSLAISNAIGGIAAQTVFLAVADMAYRPANLEHAAASVENLLQGALLSTLLAIPLLGMAGPRLDLFGIHPASVLLVAGYLYGIHLVAEARSTPYWVARQTDKTRQDTGAEGRESAALSTLWLEFVALSLVVGAAGYVIAKTGGQVAARTGLSEGLVGGLFTAVSTSLPELVTSVAAVRRGALTLAVGGIIGGNSFDVLFVAFSDVGYQEGSIYHAMTEQQVFIIALTLLLTGILLMGLLRRERRGAFGIGFESFLALVLYFGAFGLLFV” the value was “failed”; for “MTMKETFTLVATAAAGLEAVVGRELRELGYETQVENGKVRFQGDVRAIAETNLWLRAADRIKIVVGEFPARTFEELFQGVFALDWENYLPLGAKFPISKAKCVKSKLRNEPSVQAISKKAVVKKLQKYFHRPEGVPLQETGAEFKIEVSILKDKATVLIDTTGASLFKRGYRTDKGGAPIKENMAAAILELSNWYPDKPLIDPTCGSGTFCIEAAMIGMNIAPGFNRDFAFEAWNWVGKDLVQSVRDEADSKANYDVALDIMGCDIDSRMVEIAKANAREAGLEDVVKFKQMRLQDLKTDKINGVIISNPPYGERLLDDKAVDILYNEMGQTFAPLKTWSKFILTSDEQFESKYGMKADKKRKLYNGTLRVDLYQYFGERVRRSEARKVN”, “failed”; for “MSLIADHGFAFLVLACLFGFFMAWGVGANDVANAMGTSVGSRALTIRQAILVAMVFEFCGAYFAGGEVTETIRSGIVDPQYMTPDLLVFGMLSALLAAGVWLLLATIKGWPVSTTHSIVGAIIGFASVGVSVHAVHWGAIGPIVASWVVTPVLSGLLAFALFRSVQWLVLHAEDPFRSARRYVPLYMFLAGFMVALMTVGKGLKHVGLELSGLQTLGLALLAGGLVMGLGIVLLLRIRPTGGADPRGGFASVERVFAVLMIFTACSMAFAHGANDVANAIGPVAAVVAVVQAGGDLDLVSRSPVPSWVLLLGAVGIVIGLATYGYRVIATIGREITELTPSRGFAAELATASTVVGASAIGLPVSTTHTLVGAVLGIGMARGIGALNLRVIGSIFLSWVVTLPAGAVLAILFFLVLRALFGA”, “failed”.
Next, “MADKAFHTRLINMRRDLHEHPELSFQEVETTKKIRRWLEEEQIEILDVPQLKTAVIAEIKGREDGPVIAIRADIDALPIQEQTNLPFASKVDGTMHACGHDFHTASIIGTAMLLNQRRAELKGTVRFIFQPAEEIAAGARKVLEAGVLNGVSAIFGMHNKPDLPVGTIGVKEGPLMASVDRFEIVIKGKGGHASIPNNSIDPIAAAGQIISGLQSVVSRNISSLQNAVVSITRVQAGTSWNVIPDQAEMEGTVRTFQKEARQAVPEHMRRVAEGIAAGYGAQAEFKWFPYLPSVQNDGTFLNAASEAAARLGYQTVHAEQSPGGEDFALYQEKIPGFFVWMGTNGTEEWHHPAFTLDEEALTVASQYFAELAVIVLETIK”: “not failed”; “MNPKKLAFYLWLLLVAGGITAYFLYPDEINILFLEDLSEEYYYVALIIYFLLLSARGLTMIPSTPLLLAGVLTFDPLELFIVNMAGILSSSTIVYYFSKFLGFDSYFETKHGKYVRKIRRGLTDKELPVIVGWSFFPLVPTDLIVYVGSSLKIPLLKCLLGVFVGESVLNAFYIFSTNLILKL”: “failed”.
As to “GKKIKYDTPLSTLVIAPPGTGKTSAIIIPNLLSIPNSQVVIDVKGEICSLTAGYRQKKLLNQVFIFNPFGEDSNFHFNPFNLERMSKLGFAEKTAIVRQVGSTIFPKPKDEKDSHWRETAKTFFEFAAMHNIEKYGYTTLYEIYRFPKKDWTDELEDKYFDEKEKREELGEEVNTFRLLLRQIAENETLHDNIRDDARRFLGTPANEFGSVLSTFSTKMSIFGDLRVKELTDQNSFMPERLREDNITLYIKCLEKDIPSLSPIIRILLETIVKELMSRESTDPKERIYLELDEVMRFGELDFMIELPSISRSYNLPNIFAAQSYAQIRKHYSQEDLEIMLDTVAYQVVFRANRQQAAEDISKEVGDFTAHKKTTSSQDIKILQSYSTSEEAKRLVTAQDILNIPKDKVLILATGHKATPILAQANFYFKDRTERQKTKIKKE”, the protein production result is “failed”.
